The chains are these.
B1: HDV Ribozyme (parent)
chain: GGCCGGCAUGGUCCCAGCCUCCUCGCUGGCGCCGGCUGGGCAACAUUCCGAGGGGACCGUCCCCUCGGUAAUGGCGAAUGGGACCCA

The variants in the data set derive from B1. The experiment in a line: self-cleavage, relative activity (ratio to wild type); higher = more cleavage; co-transcriptional.
C44U G81C: the self-cleavage amounted to 0.0923.
Take C44U G81U: the self-cleavage came out at 0.212.
Take C44U U65C: the self-cleavage came out at 0.61.
Take C44U U65A: the self-cleavage worked out at 0.846.
To A43U A83G belongs 0.0986.
In the case of A43U G68A, the self-cleavage is 0.408.
To A43U G68C belongs 0.198; to A43U A56U, 0.475.
To A43U A56C belongs 0.374.
In the case of A45C A56U it was 0.629.
As for C44G G52C, the self-cleavage was determined as 0.724.
In the case of A45C G82U, the self-cleavage came out at 0.397.
To A45C G82C belongs 0.256; to C44U A87U, 0.718.
To C44G A45G belongs 0.503; to C44G A45U, 0.776.
In the case of C44G C85U it was 0.892.
Regarding C44G C85A, the self-cleavage worked out at 0.525.
In the case of C44G C85G it was 0.831.
In the case of C44U U60G it was 0.686; in that of C44U G68U, 0.607.
As to C44U G68A, the self-cleavage stood at 0.681.
To C44U G68C belongs 0.529; to C44G A51C, 0.447.
In the case of C44G A51U it was 0.591.
To A43U C49G belongs 0.516.
Consider A43U C49A, for which the self-cleavage was found to be 0.755.
On to A43U C49U, for which the self-cleavage was 0.554.
To A43U C58G belongs 0.7.
In the case of A43U C58A it was 0.614; in that of C44A A77U, 0.203; in that of C44A A77C, 0.128.
On to C44A A77G, for which the self-cleavage stood at 0.396.
To C44U C49A belongs 0.892; to C44U C49G, 0.935; to C44U C49U, 0.96.
To C44U C84G belongs 0.404; to A45C C85A, 0.437; to A45C C85U, 0.437.
To C44G U46C belongs 0.748; to C44G U46G, 0.609; to C44G C86G, 0.499.
Regarding C44G C86A, the self-cleavage was found to be 0.767.
To C44A C75G belongs 0.369; to A45C G55C, 0.48; to C44A C61U, 0.758.
In the case of C44A C61G it was 0.608; in that of C44A C61A, 0.618.
In the case of A43U C63U it was 0.554; in that of C44U U46C, 0.571; in that of C44U U46G, 0.712.
As for C44G C48U, the self-cleavage was found to be 0.517.
In the case of C44G C48A it was 0.543; in that of A45C C58G, 0.724; in that of C44A C62U, 0.723.
Regarding C44A C62A, the self-cleavage came to 0.708.
As to C44A C62G, the self-cleavage amounted to 0.162.
To C44U U69G belongs 0.957; to A43U A51G, 0.911; to A43U A51U, 0.332.
In the case of A45C G81A it was 0.0959; in that of A45C G81U, 0.262.
To C44G U79C belongs 0.297; to A45C C75A, 0.
On to A45C C75U, for which the self-cleavage was 0.201.
In the case of A45C C75G it was 0.237; in that of A45C U46C, 0.403; in that of A45C U46G, 0.554.
In the case of A45C C49U it was 0.831; in that of A45C C49G, 0.492.
To A43U C44U belongs 1.07; to A43U C44G, 0.739.
As for A43U C61G, the self-cleavage stood at 0.528.
Take C44A U65A: the self-cleavage stood at 0.95.
C44A G67C: the self-cleavage worked out at 0.712.
For the variant C44A U46C, the self-cleavage was 0.767.
In the case of A43U G67A it was 0.237; in that of A43U G67U, 0.499.
To A43U G67C belongs 0.354; to C44A G74A, 0.381.
In the case of C44A G53U it was 0.929.
With C44A G53A, the self-cleavage is 0.831.
In the case of C44A A56C it was 0.853; in that of A45C G50U, 0.494; in that of A45C G50A, 0.785.
Regarding C44U C64U, the self-cleavage came to 0.876.
Turning to C44U C64A, the self-cleavage turned out to be 0.408.
To A45C G74U belongs 0.369; to A43U U72G, 0.256.
A43U U72A: the self-cleavage was determined as 0.194.
In the case of C44U U72G, the self-cleavage is 0.665.
To C44G A87C belongs 0.621.
As for C44G A87G, the self-cleavage was 0.641.
To C44A G81U belongs 0.203; to A43U C48U, 0.608.
In the case of A45C U65A, the self-cleavage was found to be 0.87.
As to C44G C75G, the self-cleavage amounted to 0.256.
In the case of C44G C75U it was 0.0627; in that of A45C C66U, 0.8; in that of A45C C66A, 0.684.
In the case of A43U G53A it was 0.407; in that of A43U G53U, 0.492; in that of A45C, 0.702.
To C44A A45G belongs 1.01.
Regarding C44A A45U, the self-cleavage came out at 0.95.
On to C44U C61G, for which the self-cleavage is 0.786.
As to A45C G59A, the self-cleavage was found to be 0.704.
In the case of A45C G59C, the self-cleavage was found to be 0.696.
To C44A G73U belongs 0.397.
Consider C44A G73A, for which the self-cleavage was 0.577.
To C44A G73C belongs 0.696; to C44G A77C, 0.297; to C44G A77G, 0.665.
To C44U C66U belongs 0.817; to A43U A87G, 0.274.
In the case of A43U A87C it was 0.314; in that of C44A C66A, 0.628; in that of C44A C66G, 0.898.
Take A43U G52A: the self-cleavage amounted to 0.561.
In the case of C44G A56C it was 0.745.
In the case of C44G A56G it was 0.886; in that of A43U C86A, 0.554; in that of C44G U72G, 0.446.
To C44G U72A belongs 0.229; to C44U G52C, 0.806.
Regarding C44U G52A, the self-cleavage turned out to be 0.831.
To C44U A77U belongs 0.111; to C44G A70G, 0.525; to C44G A70C, 0.831.
To C44U C48G belongs 0.567; to C44U U79C, 0.269; to C44U U79A, 0.688.
To C44G A71C belongs 0.76.
With C44G C61G, the self-cleavage stood at 0.441.
On to C44G U65A, for which the self-cleavage turned out to be 0.443.
To C44U G76U belongs 0.847; to C44A G52U, 0.913.
In the case of C44A G52A it was 0.776; in that of A43U U47C, 0.554; in that of A43U U47A, 0.271.
To C44G G53U belongs 0.939; to A45C U60C, 0.573.
A45C U60G: the self-cleavage came out at 0.63.
In the case of A45C U60A it was 0.883; in that of C44G C66A, 0.692.
Turning to C44A U60C, the self-cleavage was found to be 0.831.
To C44U C58A belongs 1.07.
In the case of C44U C86A it was 0.716; in that of C44U C86U, 0.886.
In the case of C44G G55C it was 0.898; in that of C44G G55U, 0.65; in that of A45C C84U, 0.499.
For A45C C84G, the self-cleavage turned out to be 0.297.
To A45C C84A belongs 0.655; to C44A, 0.764; to C44U, 0.803.
To C44G belongs 0.753.
To C44G G59C belongs 0.95.
Regarding C44G G59U, the self-cleavage worked out at 0.81.
In the case of C44A U47A it was 0.965.
To C44A U47C belongs 0.831; to C44A U47G, 0.906.
C44G G74A: the self-cleavage was found to be 0.523.
In the case of C44G G74U it was 0.318; in that of C44G C84A, 0.394.
In the case of C44G C84G it was 0.375.
In the case of C44G C84U it was 0.53.

The record behind these values is the RNAGym collection of RNA variant scans (doi:10.7554/elife.80360).
